Consider four molecules from patent US10858423B2, “Composition for the treatment of IGF-1R expressing cancer” (PIERRE FABRE MEDICAMENT, priority 2015, dated 2020).

Usually EC50 stands for the concentration that produces a half-maximal response.

In assay [1] the target is T1, MCF-7 breast adenocarcinoma cell line (Homo sapiens, UniProt P08069).
T1 construct: host or cells: MCF-7
Put plainly: FACS binding of humanized variants on MCF-7. The procedure: The binding properties of the humanized variants were evaluated by FACS analyses on the human MCF-7 breast adenocarcinoma cell line and the monkey cell line Cos-7 using increasing antibody concentrations. For that purpose, cells (1×10^6 cells/ml) were incubated with anti-IGF-1R antibodies for 20 min. at 4° C. in FACS buffer (PBS, 0.1% BSA, 0.01% NaN3). They were then washed 3 times and incubated with the appropriate secondary antibody coupled with Alexa 488 for 20 additional minutes at 4° C. in the dark before being washed 3 times in FACS buffer. The binding of anti-IGF-1R antibodies was immediately performed on viable cells which were identified using propidium iodide (that stains dead cells). The EC50 of binding expressed in molarity (M) was calculated using a nonlinear regression analysis (GraphPad Prims 4.0).
A general note: Flow cytometry measures light scatter and fluorescence of single cells or particles in a stream.

Assay [2] addresses rhIR (Homo sapiens, UniProt P06213). In words: direct ELISA on rhIR coating (816C12, 810D12). In kind it is binding. Particulars: for OD values obtained at 5 μg/ml by ELISA, rhIR coating: OD at 450 nm; for binding to the human IR: ELISA. The procedure: (§1) Further characterizations of 816C12 and 810D12 were then performed using hybridoma supernatant such as rhIGF-1R or rmIGF-1R or rhIR ELISA. In all direct ELISAs, proteins of interest were immobilized (1 μg/ml) to the bottom of each well. After saturation, hybridoma supernatants were added to the wells. After a 1-hour incubation period and a washing step, a solution of goat anti-mouse IgG—HRP labelled polyclonal antibody was used for detection, prior to the addition of the TMB substrate. The reaction was stopped with a 1M H2SO4 solution before reading the OD with a spectrophotometer at a 450 nm wavelength.
In general terms: ELISA stands for enzyme-linked immunosorbent assay.

For assay [3], the target named is T2, IGF-1R, MCF-7 tumor cells (Homo sapiens, UniProt P08069).
T2 construct: from tissue; host or cells: MCF-7 xenograft tumour grown in Swiss/Nude mice, paraffin sections
In words: IHC detection of IGF-1R on MCF-7 xenograft sections. Set-up: key: No reactivity or membranous reactivity in less than 10% of tumour cells; 1+: Faint/barely perceptible membranous reactivity is detected in more than 10% of tumour cells. The cells are immunoreactive only in part of the membrane.; 2+: Weak to moderate complete membranous reactivity is seen in more than 10% of tumour cells.; 3+: Strong complete reactivity is seen in more than 10% of tumour cells. Particulars: membranous algorithm; antibody 5 μg/ml; paraffin embedded tumor. The procedure:
(§2) Sections of tissue from MCF-7 xenograft were deparaffinized, rehydrated, and placed in Target Retrieval Buffer 1× (Dako S1699) in a boiling bath pre-warm at 98° C. for heat-induced epitope retrieval at 98° C. for 40 minutes then 20 additional minutes in the Target Retrieval Buffer. After 3 washes in Tris Buffer Saline-0.05% tween 20 (TBS-T) (Dako S3006) the Endogenous peroxidase activity was blocked using Peroxidase Blocking Reagent (Dako K4007) for five minutes. Sections were washed with TBS-T and incubated a blocking reagent (UltraV block-TA-125UB-LabVision) for 5 minutes before incubation with either the 816C12 monoclonal antibody (at 5 μg/ml) or mouse IgG1/kappa (5 μg/ml, X0931, Dako) as negative control for 1 hours at room temperature. Sections were washed with TBS-T and incubated with Envision (Dako) for 30 minutes. Diaminobenzidine was used for development of a brown reaction product (Dako K3468). The slides were immersed in hematoxylin for 2 minutes to counterstain (Dako S3309).

The target in assay [4] is rmIGF-1R (Mus musculus, UniProt Q60751). Put plainly: direct ELISA on rmIGF-1R coating (816C12, 810D12). It counts as binding, murine. Particulars: for OD values obtained at 5 μg/ml by ELISA, rmIGF-1R coating: OD at 450 nm; for binding to the murine form of the IGF-1R: ELISA. On the procedure: as §1
For assay [5], the target named is T3, IGF-1R, SBC-5 tumor (Homo sapiens, UniProt P08069).
T3 construct: from tissue; host or cells: SBC-5 xenograft tumour grown in athymic mice, paraffin sections
In words: IHC detection of IGF-1R on SBC-5 xenograft sections. Set-up: key: No reactivity or membranous reactivity in less than 10% of tumour cells; 1+: Faint/barely perceptible membranous reactivity is detected in more than 10% of tumour cells. The cells are immunoreactive only in part of the membrane.; 2+: Weak to moderate complete membranous reactivity is seen in more than 10% of tumour cells.; 3+: Strong complete reactivity is seen in more than 10% of tumour cells. Particulars: same protocol as MCF-7; paraffin embedded tumor. The procedure: as §2
Level of IGF-1R was analyzed using the same protocol described in section 2.1 of the example 2 before.

For assay [6], the target named is T4, rhIGF-1R (Homo sapiens, UniProt P08069).
T4 construct: poorly recognize the rhIGF-1R ECD protein when directly coated to ELISA plates; purchased R&D Systems 391-GR
In words: direct ELISA on rhIGF-1R coating (816C12, 810D12). In kind it is binding. Particulars: for OD values obtained at 5 μg/ml by ELISA, rhIGF-1R coating: OD at 450 nm; for EC50: ELISA dose response, Prism. On the procedure: as §1
The dose response curves for the second IGF-1R antibodies on rhIGF-1R coating are presented in FIG. 1 for the 816C12 and in FIG. 1B for the 810D12. The values of the EC50 are determined using Prism application.

Assay [7] has as its target T5, soluble form of h-IGF1R (Homo sapiens, UniProt P08069).
T5 construct: a heterotetramer composed by two alpha chains and two extracellular domains of the beta chains; made in house
Put plainly: Biacore binding competition on captured soluble h-IGF1R. The conditions noted are these: antibodies 50 μg/ml, 25° C. From the text: The experiment was run on a Biacore X100 device based on the Surface Plasmon Resonance technology. A CM5 sensor chip was activated with a mouse anti-polyHistidine IgG1 monoclonal antibody chemically linked to the carboxymethyldextran matrix using the amine coupling chemistry. Typically, 12451 RU and 12257 RU of antibodies were grafted on the flowcell 1 (FC1) and flowcell 2 (FC2) respectively. The classical HBS-EP+ buffer was used as the running buffer. This buffer was also used for the preparation of the solutions of the proteins. The experiment was carried at 25° C. and at a flow rate of […].
The soluble form of IGF1R produced in house is a heterotetramer composed by two alpha chains and two extracellular domains of the beta chains completed by a 6 Histidine sequence at their C-terminal end. The protein is injected during one minute on the FC2 at the concentration of 30 μg/ml (about 80 nM). The antibodies are injected at the concentration of 50 μg/ml (about 330 nM). Either a first antibody solution (FIGS. 35B and 35D) or the running buffer (FIGS. 35A and 35C) is injected during 90 s on both flowcells. A second antibody solution is then injected on both flow cells. The absence of binding of the second antibody after the binding of the first antibody is the proof that both antibodies bind to a nearby site on the antigen (FIG. 35B) At the opposite the binding of the second antibody after the binding of the first antibody is the proof that the binding site of the second antibody is out and away of the binding site of the first antibody (FIG. 35D). At the end of each cycle, the sensor chip surface is regenerated by an injection of a Glycine, HCl 10 mM pH 1.5 buffer during 30 s.
The levels of binding of the Ac2 (arrows) without (FIGS. 35A and 35B) or with an Ac1 (FIGS. 35C and 35D) were recorded 20 s after the end of the injection. The data are represented on the histogram graph in FIG. 36.

Chain of rmIGF-1R (Q60751 31-1373): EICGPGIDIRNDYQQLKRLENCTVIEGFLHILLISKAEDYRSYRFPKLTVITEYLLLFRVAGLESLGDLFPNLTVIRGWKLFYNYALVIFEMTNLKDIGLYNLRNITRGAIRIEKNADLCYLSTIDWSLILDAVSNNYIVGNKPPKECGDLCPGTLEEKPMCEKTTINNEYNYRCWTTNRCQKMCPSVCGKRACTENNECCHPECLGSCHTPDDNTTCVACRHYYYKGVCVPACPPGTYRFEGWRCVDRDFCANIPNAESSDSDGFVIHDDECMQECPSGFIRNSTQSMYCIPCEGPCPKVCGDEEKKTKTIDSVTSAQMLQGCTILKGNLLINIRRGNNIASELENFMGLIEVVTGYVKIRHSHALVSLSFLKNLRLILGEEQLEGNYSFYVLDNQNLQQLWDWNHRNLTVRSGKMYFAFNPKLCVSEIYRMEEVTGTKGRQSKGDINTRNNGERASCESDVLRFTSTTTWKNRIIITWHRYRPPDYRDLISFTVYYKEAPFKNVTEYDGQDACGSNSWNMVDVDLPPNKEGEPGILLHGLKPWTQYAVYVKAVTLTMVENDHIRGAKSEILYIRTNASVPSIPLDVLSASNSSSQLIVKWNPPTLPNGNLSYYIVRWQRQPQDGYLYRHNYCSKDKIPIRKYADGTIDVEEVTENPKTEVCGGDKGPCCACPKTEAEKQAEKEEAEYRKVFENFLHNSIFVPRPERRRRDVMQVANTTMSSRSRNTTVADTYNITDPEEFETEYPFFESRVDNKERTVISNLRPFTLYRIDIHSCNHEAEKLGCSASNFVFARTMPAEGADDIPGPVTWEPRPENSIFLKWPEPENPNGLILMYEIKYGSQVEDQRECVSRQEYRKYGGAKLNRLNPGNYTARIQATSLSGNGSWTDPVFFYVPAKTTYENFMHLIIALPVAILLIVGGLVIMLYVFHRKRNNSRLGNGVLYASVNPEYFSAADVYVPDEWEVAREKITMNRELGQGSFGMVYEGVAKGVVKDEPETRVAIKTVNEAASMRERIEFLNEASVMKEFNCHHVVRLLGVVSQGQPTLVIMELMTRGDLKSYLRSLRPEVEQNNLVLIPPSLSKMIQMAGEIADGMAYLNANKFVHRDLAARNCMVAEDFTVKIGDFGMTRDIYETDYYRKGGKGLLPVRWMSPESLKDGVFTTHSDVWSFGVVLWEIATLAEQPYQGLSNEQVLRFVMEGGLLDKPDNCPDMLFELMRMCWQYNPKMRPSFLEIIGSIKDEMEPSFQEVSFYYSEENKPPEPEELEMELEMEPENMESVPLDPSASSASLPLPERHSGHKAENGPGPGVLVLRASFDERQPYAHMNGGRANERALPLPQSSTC

B1: hz208F2 H049/L021: humanized 208F2; VH SEQ ID No. 41, VL SEQ ID No. 37 (antibody, V domains shown)
VH: QVQLVQSGAEVKKPGASVKVSCKASGYTFTSYYMHWVRQAPGQGLEWMGWIWPGDGSTKYAQKFQGRVTMTRDKSSSTVYMELSSLRSEDTAVYYCASPMITPNYAMDYWGQGTLVTVSS
VL: DIQMTQSPSSLSASVGDRVTITCRASQDISKYLNWYQQKPGKAPKLLIYYTSRLHSGVPSRFSGRGSGTDFSLTISSLQPEDFATYFCQQGSTLPYTFGGGTKVEIK
modifications: hz208F2 heavy chain H049, VH; hz208F2 Light chain L021, VL
Take B1: the EC50 in assay [1] came to 0.66 nM.

B2: hz208F2 H076/L021: humanized 208F2; VH SEQ ID No. 55, VL SEQ ID No. 37 (antibody, V domains shown)
VH: QVQLVQSGAEVKKPGASVKVSCKASGYTFTSYYIHWVRQAPGQGLEWMGWIWPGDGSTKYAQKFQGRVTMTRDTSTSTVYMELSSLRSEDTAVYYCASPMITPNYAMDYWGQGTLVTVSS
VL: DIQMTQSPSSLSASVGDRVTITCRASQDISKYLNWYQQKPGKAPKLLIYYTSRLHSGVPSRFSGRGSGTDFSLTISSLQPEDFATYFCQQGSTLPYTFGGGTKVEIK
modifications: hz208F2 heavy chain H076, VH; hz208F2 Light chain L021, VL
Regarding B2, in assay [1], the EC50 was determined as 0.58 nM.

B3: 810D12: first IGF-1R mouse monoclonal antibody, hybridoma CNCM I-4893; VH SEQ ID No. 7, VL SEQ ID No. 8 (antibody, V domains shown)
VH: EVQLQQSGPELVKPGASVKMSCKASGHTFTSYMLHWVKQKPGQGLEWLGFINPYNDVTKYNENFKGKATLTSDKSSSTAYMELNSLTSEDSAVYFCVTTAYYGNGRYFDVWGAGTTVTVSS
VL: DIQMTQTTSSLSASLGDRVTISCRASQDITNYLTWYQQKPDGTVKVLIYYTSRLYSGVPSRFSGSGSGSDYSLTINNLEQEDIATYFCQQGYSLPWTFGGGTKLEIK
modifications: 810D12 I-4893, heavy chain, Variable domain; 810D12 I-4893, light chain, Variable domain
As to B3, in assay [2], the “OD values obtained at 5 μg/ml by ELISA, rhIR coating” value came out at 0.048 and the “binding to the human IR” value is given as “do not bind”. For the same molecule, in assay [3], the “IHC scoring of the staining of MCF-7 tumor cells” value is recorded as 3+. In addition, in assay [4], the “OD values obtained at 5 μg/ml by ELISA, rmIGF-1R coating” value amounted to 1.293 and the “binding to the murine form of the IGF-1R” value is on record as “do not bind”. Moreover, in assay [5], the “IHC scoring of IGF-1R in SBC-5 tumor” value is listed as 1+. Also, in assay [6], the “OD values obtained at 5 μg/ml by ELISA, rhIGF-1R coating” value was 2.136 and a half-maximal response (EC50) required 0.51 nM. Moreover, the “binding as Ac2 after Hz208F2-4 injected as Ac1” value in assay [7] was “practically no effect”.

B4: 816C12: first IGF-1R mouse monoclonal antibody, hybridoma CNCM I-4894; VH SEQ ID No. 17, VL SEQ ID No. 18 (antibody, V domains shown)
VH: EVQLQQSGPELVKPGASVKMSCKASGHTFTSYVLHWMKRKPGQGLEWIGYINPHNDVTKYNENFKGKATLTSDKYSSTVYMEVSSLTSEDSAVYYCVSTAYYGNGRYFDVWGAGTTVTVSS
VL: DIQMTQTTSSLSASLGDRVTISCRASQDINNYLNWYQQKPDGTVKLLIYYTSRLHSGVSSRFSGSGSGTDYSLTISNLEQEDIATYFCQQGNTLPWTFGGGTKLEIK
modifications: 816C12 I-4894, heavy chain, Variable domain; 816C12 I-4894, light chain, Variable domain
On to B4, for which, in assay [2], the “OD values obtained at 5 μg/ml by ELISA, rhIR coating” value is on record as 0.055 and the “binding to the human IR” value is recorded as “do not bind”. Besides, the “IHC scoring of the staining of MCF-7 tumor cells” value in assay [3] is reported as 3+. In assay [4], the “OD values obtained at 5 μg/ml by ELISA, rmIGF-1R coating” value was 0.065 and the “binding to the murine form of the IGF-1R” value is “do not bind”. For the same molecule, in assay [5], the “IHC scoring of IGF-1R in SBC-5 tumor” value was 1+. Further, in assay [6], the “OD values obtained at 5 μg/ml by ELISA, rhIGF-1R coating” value is 2.622 and the midpoint of the response, the EC50, lay at 0.41 nM. For the same molecule, the “binding as Ac2 after Hz208F2-4 injected as Ac1” value in assay [7] is reported as “practically no effect”.
